Patent US20130280162A1

Molecular target: human uPAR on 293/uPAR cells (human) (UniProt Q03405)
Test: cell-based or functional assay

Sequence of human uPAR on 293/uPAR cells (human) (Q03405 23-305): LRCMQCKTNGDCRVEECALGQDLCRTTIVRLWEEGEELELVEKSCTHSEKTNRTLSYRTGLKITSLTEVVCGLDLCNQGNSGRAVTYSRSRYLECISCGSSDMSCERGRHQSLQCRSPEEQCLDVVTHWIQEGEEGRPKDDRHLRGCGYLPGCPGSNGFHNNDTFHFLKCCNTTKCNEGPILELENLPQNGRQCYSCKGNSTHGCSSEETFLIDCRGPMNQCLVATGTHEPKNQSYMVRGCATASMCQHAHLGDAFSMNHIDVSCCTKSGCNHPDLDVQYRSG

IC50, inhibition of 293/uPAR cell adhesion to VN (RTCA impedance, 1 h after addition) [nM]	maximal inhibition of 293/uPAR cell adhesion to VN [%]	Binder
6.3	60	SMB-GFD/mFc (disulphide-linked homodimer) (Fc fusion) DQESCKGRCTEGFNVDKKCQCDELCSYYQSCCTDYTAECKPGGGGSGGGGSGGGGPSNCDCLNGGTCVSNKYFSNIHWCNCPKKFGGQHCEIDKSKGSGLEAGAGPRDCGCKPCICTVPEVSSVFIFPPKPKDVLTITLTPKVTCVVVDISKDDPEVQFSWFVDDVEVHTAQTKPREEQFNSTFRSVSELPIMHQDWLNGKEFKCRVNSAAFPAPIEKTISKTKGRPKAPQVYTIPPPKEQMAKDKVSLTCMITDFFPEDITVEWQWNGQPAENYKNTQPIMDTDGSYFVYSKLNVQKSNWEAGNTFTCSVLHEGLHNHHTEKSLSHSPGK
20	60	GFD-SMB/mFc (disulphide-linked homodimer) (Fc fusion) SNELHQVPSNCDCLNGGTCVSNKYFSNIHWCNCPKKFGGQHCEIDKSKTGGGGSGGGGSGGGGQESCKGRCTEGFNVDKKCQCDELCSYYQSCCTDYTAECKPGSGLEAGAGPRDCGCKPCICTVPEVSSVFIFPPKPKDVLTITLTPKVTCVVVDISKDDPEVQFSWFVDDVEVHTAQTKPREEQFNSTFRSVSELPIMHQDWLNGKEFKCRVNSAAFPAPIEKTISKTKGRPKAPQVYTIPPPKEQMAKDKVSLTCMITDFFPEDITVEWQWNGQPAENYKNTQPIMDTDGSYFVYSKLNVQKSNWEAGNTFTCSVLHEGLHNHHTEKSLSHSPGK
